From publication PMC9633773, “Discovering cell-active BCL6 inhibitors: effectively combining biochemical HTS with multiple biophysical techniques, X-ray crystallography and cell-based assays” (Scientific Reports, 2022)

Biological target: Trx-6His-HRV3C-BCL6 (Thioredoxin-6His-tagged BCL6 BTB, uncleaved) (human), P41182
Assay: AlphaScreen or HTRF; TR-FRET competition: 1 or 10 nM Trx-6His-BCL6 BTB, 300 nM BCOR-A633, 0.5 or 1 nM anti-6His-Terbium cryptate; 25 mM Hepes pH 8, 100 mM NaCl, 0.05% Tween20, 0.5 mM TCEP, 0.05% BSA; 2 h at room temperature

## RSEIISTAPSSWVVPGP (modifications not checked) [unlabelled BCOR peptide (17 residue BCOR peptide)]
  IC50: 8 µM
